B1: Mitochondrial import receptor subunit TOM70 (Homo sapiens), O94826 (parent)
chain: MAASKPVEAAVVAAAVPSSGSGVGGGGTAGPGTGGLPRWQLALAVGAPLLLGAGAIYLWSRQQRRREARGRGDASGLKRNSERKTPEGRASPAPGSGHPEGPGAHLDMNSLDRAQAAKNKGNKYFKAGKYEQAIQCYTEAISLCPTEKNVDLSTFYQNRAAAFEQLQKWKEVAQDCTKAVELNPKYVKALFRRAKAHEKLDNKKECLEDVTAVCILEGFQNQQSMLLADKVLKLLGKEKAKEKYKNREPLMPSPQFIKSYFSSFTDDIISQPMLKGEKSDEDKDKEGEALEVKENSGYLKAKQYMEEENYDKIISECSKEIDAEGKYMAEALLLRATFYLLIGNANAAKPDLDKVISLKEANVKLRANALIKRGSMYMQQQQPLLSTQDFNMAADIDPQNADVYHHRGQLKILLDQVEEAVADFDECIRLRPESALAQAQKCFALYRQAYTGNNSSQIQAAMKGFEEVIKKFPRCAEGYALYAQALTDQQQFGKADEMYDKCIDLEPDNATTYVHKGLLQLQWKQDLDRGLELISKAIEIDNKCDFAYETMGTIEVQRGNMEKAIDMFNKAINLAKSEMEMAHLYSLCDAAHAQTEVAKKYGLKPPTL

Variants of: B1
Settings: with orf9b_sars2 orf9b

Question: E477A was tested. Which “effect of a mutation on the interaction” value did it give?
Answer: The value was “decreasing interaction strength”.

Variants of: B1
Settings: with orf9b_sars2 orf9b
Remark: another data set of the same source

Question: With R192A as the variant, how does the “effect of a mutation on the interaction” value read?
Answer: Its value is “decreasing interaction strength”.

Source: IntAct's records for PubMed 34502139
